According to US6518397B1, “Pharmaceuticals for modulating hormone responsiveness” (priority 1995, dated 2003):
“Also recorded” adds a separate entry of the source. Where no end group is shown, it is not given here.

T1: DNA binding domain of recombinant rat androgen receptor (AR) / calreticulin (p60) (Homo sapiens, UniProt P27797)
T1 construct: endogenous in cells
T1 sequence (P27797 18-417): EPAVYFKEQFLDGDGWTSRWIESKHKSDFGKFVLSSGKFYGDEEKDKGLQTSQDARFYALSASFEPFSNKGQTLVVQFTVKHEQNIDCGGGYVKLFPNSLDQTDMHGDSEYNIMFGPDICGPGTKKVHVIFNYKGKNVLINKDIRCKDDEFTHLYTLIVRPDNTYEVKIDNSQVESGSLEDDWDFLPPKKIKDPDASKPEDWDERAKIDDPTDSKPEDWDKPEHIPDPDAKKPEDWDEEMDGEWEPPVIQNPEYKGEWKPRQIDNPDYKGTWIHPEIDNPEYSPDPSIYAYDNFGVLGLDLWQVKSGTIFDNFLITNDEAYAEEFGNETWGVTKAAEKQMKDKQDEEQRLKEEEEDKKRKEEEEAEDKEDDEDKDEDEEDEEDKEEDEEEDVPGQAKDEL

T2: calreticulin as used in the gel mobility shift assays of Examples 7 and 15 (Homo sapiens (Human), UniProt P27797 18-417)
T2 construct: Could be m1 or m2
T2 sequence: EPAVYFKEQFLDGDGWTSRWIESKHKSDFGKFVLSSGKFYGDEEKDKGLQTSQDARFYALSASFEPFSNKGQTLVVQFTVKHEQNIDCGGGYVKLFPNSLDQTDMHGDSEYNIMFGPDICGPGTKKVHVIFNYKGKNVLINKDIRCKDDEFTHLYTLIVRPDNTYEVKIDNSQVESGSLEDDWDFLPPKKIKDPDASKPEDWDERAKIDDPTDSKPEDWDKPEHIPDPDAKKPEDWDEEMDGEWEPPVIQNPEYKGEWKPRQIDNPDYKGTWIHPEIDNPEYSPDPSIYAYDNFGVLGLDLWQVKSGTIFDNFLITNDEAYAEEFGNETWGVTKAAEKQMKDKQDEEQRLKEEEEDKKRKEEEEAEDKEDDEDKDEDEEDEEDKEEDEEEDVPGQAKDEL


Assays:
[1] = target: T1, DNA binding domain of recombinant rat androgen receptor (AR) / calreticulin (p60); experiment: Gel mobility shift (gel retardation) assay: calreticulin (p60) inhibition of AR-ARE binding and its reversal by peptides/antibody; conditions: for Effectiveness of binding to calreticulin, in words: effect of substitution in KXFFX1R sequence, band shift; for Reversal of GST-calreticulin (recombinant calreticulin) inhibition of AR-ARE interaction: calreticulin 2 μg, peptides at 50-fold molar excess; for Reversal of p60 (calreticulin) inhibition of AR-ARE binding: peptide, antibody or IgG pre-incubated with p60
Description: To determine whether p60 (calreticulin) could directly modulate the binding of nuclear hormone receptors to DNA via the KXFFX^1R [SEQ ID NO:1] sequence, the interaction of the DNA binding domain of recombinant androgen receptor with its hormone responsive element was analyzed by carrying out gel mobility shift assays.
(§1) As described in Rennie et al., 1993, DNA binding domain of recombinant rat androgen receptor was prepared as a GST-fusion protein using the pGEX-3X vector and purified by glutathione-agarose affinity chromatography. p60 (calreticulin) was purified by affinity chromatography on KLGFFKR-sepharose [SEQ ID NO:7], followed by gel electrophoresis as described in detail in Rojiani et al., 1991. […] Recombinant calreticulin (GST-fusion protein) was prepared as described by Baksh and Michalak, 1991. Gel retardation assays were carried out as described by Rennie et al., 1993. To analyze the effect of p60, or recombinant calreticulin, on receptor-DNA binding activity, the AR was pre-incubated with p60 for 30 min at 4° C. To analyze the effects of synthetic peptides, anti-calreticulin antibody, and non-immune IgG on p60 inhibition of AR-ARE binding, the peptide, antibody or IgG were pre-incubated with p60 for 30 min at 4° C. The androgen receptor preparation was then added to these mixtures and further incubated for 30 min at 4° C.
Affinity purified DNA binding domain of the recombinant rat androgen receptor (AR) was pre-incubated with or without the indicated concentrations of purified p60 at 4° C. for 30 min. After this pre-incubation the reaction mixtures were incubated with ^32P-labeled 26 base pair ARE (Rennie et al., 1993) (androgen response element), and analyzed by gel retardation assay. The sequence of the ARE used was [SEQ ID NO:28]:
Amino acids in the KXFFX^1R [SEQ ID NO: 1] sequence were modified. Androgen receptor and calreticulin were incubated in the presence of the modified peptides and allowed to interact with an oligonucleotide containing the androgen response element (the method of this assay is described in Example 3). The interaction was analyzed by gel mobility shaft assay (FIGS. 5A-5C).

[2] = test system: retinoic acid receptor mediated gene transcription (bRARE luciferase) in P19 cells; experiment: RARE-driven luciferase reporter in P19 cells after peptide preincubation; format: cell-based, mouse; conditions: for Luciferase × 10^6: P19 cells, 10^-7 retinoic acid
Description: In order to test whether a peptide based on the calreticulin-binding KXGFFKR [SEQ ID NO:30] sequence modulates retinoic acid induced gene transcription in live cells, the p19 cells were transfected with a reporter vector consisting of a retinoic acid response element fused to the luciferase gene.
Cell culture conditions: Mouse embryonic carcinoma (P19) cell, grown in 60 mm dishes in 7.5% donor calf serum, 2.5% fetal calf serum alpha MEM (Gibco/BRL) were treated with the peptides KLGFFKR [SEQ ID NO:7] or KLRFGFK [SEQ ID NO:29] for three hours or overnight for 20 hours at 37° C., 5% CO2. With few exceptions, KLXFFKR [SEQ ID NO:31] is the peptide sequence specific within the binding domain of all steroid receptors. KLRFGFK [SEQ ID NO:29] is the scrambled peptide of the above sequence. Subsequently each plate was washed four times with serum free alpha MEM to remove excess peptides and replenished with fresh serum containing media. Cells were then transfected by standard calcium phosphate precipitation method (Current Protocols in Molecular Biology 9:1) with 1 microgram bRARE in pTKluc, 1.5 microgram pRSV bgal, 3 microgram pKS (carrier) per 60 mm dish. Following a 16 hour incubation at 37° C. 5% CO2, each plate was washed two times with serum free alphaMEM and replenished with serum containing media supplement with […] retinoic acid (Sigma R2625) and 800 microgram/ml G418 (Gibco 1181-031). Following another 24 hours incubation cells were washed three times with PBS and each 60 mm dish of cells was lysed in 100 microliters of 1 % triton X100, 100 mM KPO4 pH7.8, 1 mM DTT. Cell lysates were stored at −70° C. Prior to luciferase/bgal assays, cell debris were spun out on an Eppendorf microfuge (5415C) at 4° C. full speed for 20 minutes.
Luciferase assay: All reagents were equilibrated to room temperature and each sample was assayed independently. Ten microliters of cell lysate was incubated with 50 microliters of luciferase reagent (Promega E1483) in an Eppendorf tube. Thirty seconds later, the sample was immediately counted in a Beckman scintillation counter (LS6000IC) for one minute using an open window. Standards in the range of 0.001 nanogram to 1.0 nanogram was used to establish the linearity of the assay.
Beta-gal assay: Assay was done in a microtitre plate (Linbro 76-232-05). Ten microliters of cell lysate were mixed with 90 microliters of bgal reagent in 88 mM phosphate buffer, 11 mM KCl, 1 mM MgCl2, 55 mM 2ME, 4.4 mM chlorophenol red b-D-galactopyranoside (BMC 884-308). Incubation period varied from 30 minutes to 2 hours at 37° C. Results were read at 570 nm in an ELISA reader (Dynatech MR5000).

[3] = target: T2, calreticulin as used in the gel …; experiment: gel mobility shift; reversal of calreticulin inhibition of receptor-DNA binding; competitor RXR/RXR, reference RAR/RXR
Description: (§2) Example 7 Peptides Having Differential Specificities for Disrupting Different Hormone Receptor-Calreticulin Interactions To identify peptides having different specificities, we utilized gel mobility shift assays (see Example 3) in which known concentrations of purified recombinant androgen receptor, estrogen receptor, retinoic acid receptors (RAR/RXR and RXR/RXR) (Shago et al., 1994) and vitamin D receptor (Xu et al., 1993) were incubated with known concentrations of either recombinant calreticulin, or calreticulin purified by affinity chromatography on a KLGFFKR affinity column [SEQ ID NO:7] (see Example 3) in the presence of the respective ^32P-labelled DNA response elements and known concentrations of synthetic peptides based on the KXFFX[1]R [SEQ ID NO:1] sequence. In addition to the linear peptides, some peptides were cyclized by adding cysteine residues at either ends.

[4] = target: T2, calreticulin as used in the gel …; experiment: gel mobility shift, PhosphorImager; reversal of calreticulin inhibition of AR binding to its DNA response element; competitor AR
Description: as §1, with “To analyze the effects of synthetic peptides, anti-calreticulin antibody, and non-immune IgG on p60 inhibition of AR-ARE binding, the peptide, antibody or IgG were pre-incubated with p60 for 30 min at 4° C.” left out
(§3) This Table relates to the retinoic acid receptors (RAR/RXR) and the androgen receptor (AR). […] The data was quantified using a Phosphormager (Molecular Dynamics).

[5] = target: T2, calreticulin as used in the gel …; experiment: gel mobility shift, PhosphorImager; reversal of calreticulin inhibition of RAR/RXR binding to its DNA response element; competitor RAR/RXR
From the text: as §3

[6] = target: T2, calreticulin as used in the gel …; experiment: gel mobility shift; reversal of calreticulin inhibition of receptor-DNA binding; competitor VDR/RXR, reference RAR/RXR
Description: as §2

[7] = overnight preincubation with 10 micromolar peptide
[8] = overnight preincubation with 50 micromolar peptide
[9] = overnight preincubation with 100 micromolar peptide

Molecule	Effectiveness of binding to calreticulin, in words [1]	% Reversal [4] [%]	% Reversal [5] [%]	other results
KGFFGR [compound 416]	decreased the ability of peptides to bind calreticulin	–	–	–
KGFFKG [compound 417]	decreased the ability of peptides to bind calreticulin	–	–	–
KGFRKR [compound 415]	increased the effectiveness of binding to calreticulin	–	–	–
KGFRRR [compound 421]	increased the effectiveness of binding to calreticulin	–	–	–
KGRFKR [compound 414]	increased the effectiveness of binding to calreticulin	–	–	–
KGRFRR [compound 420]	increased the effectiveness of binding to calreticulin	–	–	–
KLGFFKR	–	–	–	Corrected values luc/bgal [2, 7]: 32.91; Luciferase × 10^6 [2, 7]: 13 × 10^6; Corrected values luc/bgal [2, 8]: 45.15; Luciferase × 10^6 [2, 8]: 20 × 10^6; Luciferase × 10^6 [2, 9]: 28 × 10^6; Luciferase activity (retinoic acid receptor mediated gene transcription), in words ([2]; pre-incubation of P19 cells with peptide): dose-dependent increase in luciferase activity; Reversal of GST-calreticulin (recombinant calreticulin) inhibition of AR-ARE interaction [1]: Reversal of this inhibition; Reversal of p60 (calreticulin) inhibition of AR-ARE binding [1]: reversed; Effect by itself on the receptor-DNA interaction ([1]; without p60, data not shown): neither KLGFFKR peptide [SEQ ID NO:7], anti-calreticulin antibody, nor non-immune IgG by themselves had any effect
KLRFGFK [reference compound]	–	–	–	Corrected values luc/bgal [2, 7]: 42.04; Luciferase × 10^6 [2, 7]: 14 × 10^6; Corrected values luc/bgal [2, 8]: 41.34; Luciferase × 10^6 [2, 8]: 16 × 10^6; Corrected values luc/bgal [2, 9]: 32.26; Luciferase × 10^6 [2, 9]: 14 × 10^6; Reversal of p60 (calreticulin) inhibition of AR-ARE binding [1]: much less effective
KVAFKR (not fully specified) [compound 427]	decreased the ability of peptides to bind calreticulin	–	–	–
KVFAKR [compound 429]	decreased the ability of peptides to bind calreticulin	–	–	–
KVFFKA [compound 430]	decreased the ability of peptides to bind calreticulin	–	–	–
KVFFKR [compound 285]	–	–	–	Reversal of GST-calreticulin (recombinant calreticulin) inhibition of AR-ARE interaction [1]: can also reverse the inhibition; also recorded: reversed; Reversal of p60 (calreticulin) inhibition of AR-ARE binding [1]: reversed
bovine serum albumin: other protein of similar size, used as control [reference compound]	–	–	–	Effect of protein on AR-ARE (receptor-DNA) complex formation ([1]; protein pre-incubated with AR 30 min at 4° C.): did not have any effect on the nuclear receptor-DNA interaction
KLGFFKR (Used free in solution and immobilised on sepharose; also called KLGFFKR-sepharose) [KLGFFKR synthetic peptide]	–	62	100	fold potency against RXR/RXR compared to RAR/RXR [3]: 4 fold; fold potency against VDR/RXR compared to RAR/RXR [6]: 10 fold
GLGFFKR [GLGFFKR peptide]	–	100	45	–
KLDFFKR [KLDFFKR peptide]	–	0	73	–
KLGFFGR [KLGFFGR peptide]	–	85	65	–
KLGFFKG [KLGFFKG peptide]	–	63	22	–
KLGFRKR [KLGFRKR peptide]	–	6	20	–
KLGRFKR [KLGRFKR peptide]	–	10	24	–
KGFFKR (also called 409) [KGFFKR peptide]	–	–	100	–
KVFFKR (also called 285; androgen receptor derived peptide) [KVFFKR peptide]	–	100	–	–
KLRFGFK (Control) [KLRFGFK scrambled peptide]	–	–	34	–
